Target: T1, 6XHis-tagged ALIX Bro1 protein (residues 1–392) (UniProt Q8WUM4 1-392)
T1 construct: Bro1 domain of ALIX, residues 1-392; also called recombinant ALIX Bro1; recombinant Bro1; source: E. coli, recombinant
T1 sequence (looked up): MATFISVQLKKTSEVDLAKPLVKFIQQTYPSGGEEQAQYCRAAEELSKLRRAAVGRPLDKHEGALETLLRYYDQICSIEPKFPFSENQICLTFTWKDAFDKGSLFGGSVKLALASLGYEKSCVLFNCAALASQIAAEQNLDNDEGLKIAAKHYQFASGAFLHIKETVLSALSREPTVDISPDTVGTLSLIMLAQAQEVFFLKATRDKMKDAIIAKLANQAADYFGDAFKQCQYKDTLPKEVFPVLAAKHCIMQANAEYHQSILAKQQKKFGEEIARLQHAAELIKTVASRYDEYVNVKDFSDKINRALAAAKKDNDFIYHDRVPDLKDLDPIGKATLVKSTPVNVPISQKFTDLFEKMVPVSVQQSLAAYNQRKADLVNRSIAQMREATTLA
Experiment: pull-down
Conditions: both partners purified

B1: peptide representing the C-terminal 20 residues of CHMP4B (peptide, UniProt Q9H444 205-224, looked up)
peptide: KKKEEEDDDMKELENWAGSM
notes: also called CHMP4 peptide; source: synthetic peptide
binding result: binds

— publication PMC9410543, “Nonlytic cellular release of hepatitis A virus requires dual capsid recruitment of the ESCRT-associated Bro1 domain proteins HD-PTP and ALIX” (PLoS Pathogens, 2022)
